Measured values from patent publication US20240383993A1 (LANOVA MEDICINES, published 2024).

T1: His-tagged cynomolgus 4-1BB protein (cynomolgus, UniProt A9YYE7 24-186)
T1 construct: Coated on ELISA plates at 2 µg/ml; also called Cyno 4-1BB; soluble cynomolgus 4-1BB; not shown: His tag
T1 sequence: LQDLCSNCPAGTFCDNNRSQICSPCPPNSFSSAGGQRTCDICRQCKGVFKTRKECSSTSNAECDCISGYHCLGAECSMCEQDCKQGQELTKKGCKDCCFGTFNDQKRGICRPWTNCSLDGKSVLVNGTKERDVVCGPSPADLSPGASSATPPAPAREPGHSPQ


Tests used:
[1] = target: T1, His-tagged cynomolgus 4-1BB protein; assay: ELISA, coated His-tagged 4-1BB, anti-human IgG-HRP
Method: (§1) His-tagged 4-1BB was coated at 2 μg/ml overnight and then blocked by 2% BSA in PBS. Serially diluted anti-4-1BB nanobodies were incubated with the coated antigen for 1h at room temperature with a reference antibody “Ref mAb”. The resulting plates were washed with PBS/T and incubated with goat anti-human IgG-HRP for 1 h at room temperature. The plates were developed with TMB substrate and analyzed by spectrophotometer at OD 450 nm.

[2] = target: T2, His-tagged human 4-1BB protein (human, UniProt Q07011 24-186); assay: ELISA, coated His-tagged 4-1BB, anti-human IgG-HRP
T2 construct: Coated on ELISA plates at 2 µg/ml; also called hu4-1BB; soluble human 4-1BB; not shown: His tag
Method: as §1

[3] = target: T3, human 4-1BB expressed on cells (human, UniProt Q07011 24-255); assay: flow cytometry competition with biotinylated human 4-1BB ligand on CHO-K1/human 4-1BB cells
T3 construct: whole, on cells; also called CHO-K1/hu4-1BB; cell surface human 4-1BB
T3 sequence (Q07011 24-255): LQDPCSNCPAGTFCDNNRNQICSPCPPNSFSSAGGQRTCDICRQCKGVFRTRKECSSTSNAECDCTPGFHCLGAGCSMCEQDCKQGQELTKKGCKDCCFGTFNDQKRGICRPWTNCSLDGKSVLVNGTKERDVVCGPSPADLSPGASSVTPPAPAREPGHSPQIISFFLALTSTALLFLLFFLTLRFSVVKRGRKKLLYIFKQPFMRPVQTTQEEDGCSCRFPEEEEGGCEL
Method: CHO-K1 cells overexpressing human 4-1BB were incubated with biotinylated human 4-1BB ligand (0.3 μg/ml) in the presence of serial diluted anti-41BB nanobodies for 1 h at 4° C. with Ref mAb as the reference antibody. Then, cells were incubated with Alexa Fluor 633-conjugated streptavidin. Binding was measured with an Agilent flow cytometer. As shown in FIG. 2 and Table 3, all of the tested nanobodies could block 4-1BB ligand binding to 4-1BB in a concentration-dependent manner while Ref mAb had no such effect.

[4] = target: T3, human 4-1BB expressed on cells; assay: cell-based or functional assay
[5] = target: T3, human 4-1BB expressed on cells; assay: flow cytometry on CHO-K1/hu4-1BB cells, anti-human Fc-Alexa Fluor 633
Method: (§2) To evaluate the antigen binding property in a cell-based setting, the 4-1BB humanized nanobodies were analyzed for their binding to 4-1BB overexpressed on CHO-K1 cells by FACS.
(§3) Briefly, CHO-K1 cells overexpressing human 4-1BB or cynomolgus 4-1BB were incubated with the serial diluted anti-4-1BB nanobodies for 30 min at 4° C. Then, the cells were incubated with Alexa Fluor 633-conjugated anti-human Fc secondary antibody. Binding was measured with an Agilent flow cytometer.

[6] = target: T4, cynomolgus 4-1BB overexpressed on CHO-K1 cells (cynomolgus, UniProt A9YYE7 24-254); assay: flow cytometry on CHO-K1/Cyno-41BB cells, anti-human Fc-Alexa Fluor 633
T4 construct: whole, on cells; also called CHO-K1/Cyno-41BB; cell surface cyno 4-1BB
T4 sequence (A9YYE7 entry or part of it): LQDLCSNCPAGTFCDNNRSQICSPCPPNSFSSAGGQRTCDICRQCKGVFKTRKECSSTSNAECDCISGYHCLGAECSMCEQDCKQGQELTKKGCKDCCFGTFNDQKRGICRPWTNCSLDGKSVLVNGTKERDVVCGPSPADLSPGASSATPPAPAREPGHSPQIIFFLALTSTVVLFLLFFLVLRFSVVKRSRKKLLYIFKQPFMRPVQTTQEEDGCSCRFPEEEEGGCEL
Method: as §2, §3

Row | EC50 [1] | EC50 [2] | IC50 [3] | EC50 (nM) in Jurkat-41BB NFκB reporter assay [4] | EC50 [5] | Max (MFI) [5] | EC50 [6] | Max (MFI) [6] | Binder
1 | 0.11 nM | > 30 nM | 0.573 nM | 0.01 nM |  |  |  |  | VV02-1SP (1)-73 (Fc fusion, not shown: a dimerising Fc or GST; small tags and cut ends, Llama nanobody tested as fusion with human IgG1 Fc (N297A)) VHH: EVDLVESGGGLVQPGGSLRLSCAVSGFTFSNSAMSWARQAPGKEFEWVSSIYSDGKTYYVDSVKGRFTISRDNAKNTVYLQMSSLKPEDTAVYYCATWKTLRVGVWDESDYWGQGTQVTVSS
2 |  |  |  |  | 0.8 nM | 5240 MFI |  |  | VV02-1SP (1)-73 huNb_1_2 (Fc fusion, detection by anti-human Fc; not shown: Fc part, implied only by the anti-human Fc secondary antibody) VHH: EVQLLESGGGLVQPGGSLRLSCAASGFTFSSSAMSWARQAPGKELEWVSSIYSSGKTYYVESVKGRFTISRDNAKNTLYLQMSSLRAEDTAVYYCATWKTLRVGVWDESDYWGQGTLVTVSS
3 |  |  |  |  | 0.37 nM | 9270 MFI |  |  | VV02-1SP (1)-73 huNb_2_2 (Fc fusion, detection by anti-human Fc; not shown: Fc part, implied only by the anti-human Fc secondary antibody) VHH: EVQLVESGGGLIQPGGSLRLSCAASGFTFSSSAMSWARQAPGKEFEWVSSIYSSGKTYYVESVKGRFTISRDNAKNTLYLQMSSLRAEDTAVYYCATWKTLRVGVWDESDYWGQGTQVTVSS
4 |  |  |  |  | 0.52 nM | 8560 MFI |  |  | VV02-1SP (1)-73 huNb_3_2 (Fc fusion, detection by anti-human Fc; not shown: Human Fc part, implied only by the anti-human Fc secondary antibody) VHH: EVQLVESGGGLVQPGGSLRLSCAASGFTFSSSAMSWARQAPGKGFEWVSSIYSSGKTYYVESVKGRFTISRDNAKNSLYLQMSSLRAEDTAVYYCATWKTLRVGVWDESDYWGQGTLVTVSS
5 |  |  |  |  | 0.61 nM |  |  |  | VV02-1SP (1)-73 huNb_1_3 (Fc fusion, detection by anti-human Fc; not shown: Fc part, implied only by the anti-human Fc secondary antibody) VHH: EVDLVESGGGLVQPGGSLRLSCAVSGFTFSSSAMSWARQAPGKEFEWVSSIYSSGKTYYVESVKGRFTISRDNAKNTVYLQMSSLRPEDTAVYYCATWKTLRVGVWDESDYWGQGTLVTVSS
6 |  |  |  |  | 0.49 nM |  |  |  | VV02-1SP (1)-73 huNb_2_3 (Fc fusion, detection by anti-human Fc; not shown: Fc part, implied only by the anti-human Fc secondary antibody) VHH: EVQLVESGGGLVQPGGSLRLSCAVSGFTFSSSAMSWARQAPGKEFEWVSSIYSSGKTYYVESVKGRFTISRDNAKNTVYLQMSSLRPEDTAVYYCATWKTLRVGVWDESDYWGQGTQVTVSS
7 |  |  |  |  | 0.66 nM | 9630 MFI |  |  | VV02-1SP (1)-73 huNb_3_3 (Fc fusion, detection by anti-human Fc; not shown: Human Fc part, implied only by the anti-human Fc secondary antibody) VHH: EVQLVESGGGLVQPGGSLRLSCAVSGFTFSSSAMSWARQAPGKEFEWVSSIYSSGKTYYVESVKGRFTISRDNAKNSVYLQMSSLRPEDTAVYYCATWKTLRVGVWDESDYWGQGTLVTVSS
8 | 4.19 nM | > 30 nM | 0.995 nM | 0.036 nM |  |  |  |  | VV02-2LP-13 (Fc fusion, Llama nanobody tested as fusion with human IgG1 Fc (N297A); not shown: Human IgG1 Fc fragment with N297A, plus the hinge or linker joining it to the nanobody) VHH: AVQLVESGGGLVQPGGSLRLSCAASGFTFSSYAMSWARQVPGKGFEWVAYIYSDGSTYYADSVKGRFTISRDNAKDTVYLHMNSLKFEDMAVYYCATWRSQQVGRWDEYDHWGQGTQVTVSS
9 | 0.11 nM | > 30 nM | 0.988 nM | 0.004 nM |  |  |  |  | VV02-1SP (1)-358 (Fc fusion, not shown: a dimerising Fc or GST; small tags and cut ends, Llama nanobody tested as fusion with human IgG1 Fc (N297A)) VHH: EVQLVESGGGLVQPGGSLMISCAASGFTFSSSAMSWARQVPGKGFEWVAYIYSDGSTYYADSVKGRFTISRDNAKDTVYLHMNSLKFEDMAVYYCATWRSQQVGRWDKYDYWGQGTQVTVSS
10 | 1.87 nM | > 30 nM | 0.573 nM | 0.023 nM |  |  |  |  | VV02-1SP (1)-55 (Fc fusion, not shown: a dimerising Fc or GST; small tags and cut ends, Llama nanobody tested as fusion with human IgG1 Fc (N297A)) VHH: EVQLVESGGGLVQPGGSLRLSCAASGFTFSSSAMSWARQVPGKGFEWVAYIYSDGSTYYADSVKGRFTISRDNAKDTVYLHMNSLKFEDMAVYYCATWRSQQVGRWDEYDYWGQGIQVTVSS
11 | 2.03 nM | > 30 nM | 0.682 nM | 0.014 nM |  |  |  |  | VV02-3LP-83 (Fc fusion, Llama nanobody tested as fusion with human IgG1 Fc (N297A); not shown: Human IgG1 Fc fragment with N297A, plus the hinge or linker joining it to the nanobody) VHH: EVDLVESGGGLVQPGGSLRLSCAASGFTFRSYAMSWARQVPGKGFEWVAYIYSDGSTYYADSVKGRFTISRDNAKDTVYLHMNSLKFEDMAVYYCATWRSQQVGRWDEYDHWGQGTQVTVSS
12 | 18.2 nM | > 30 nM | 0.923 nM | 0.014 nM |  |  |  |  | VV02-3LP-142 (Fc fusion, Llama nanobody tested as fusion with human IgG1 Fc (N297A); not shown: Human IgG1 Fc fragment with N297A, plus the hinge or linker joining it to the nanobody) VHH: AVQLVESGGGLVQRGGSLKLSCVGSGFDFSDHAMSWARQVPGKGFEWVAYIYSDGSTYYADSVKGRFTISRDNAKDTVYLHMNSLKFEDMAVYYCATWRSQQVGRWDEYDHWGQGTQVTVSS
13 |  |  |  |  | 27.4 nM | 3700 MFI |  |  | VV02-1SP (1)-73 huNb_3_1 (Fc fusion, detection by anti-human Fc; not shown: Fc part, implied only by the anti-human Fc secondary antibody) VHH: EVQLVESGGGLVQPGGSLRLSCAASGFTFSSSAMSWARQAPGKGFEWVASIYSSGKTYYVESVKGRFTISRDNAKNSLYLQMNSLRAEDTAVYYCARWKTLRVGVWDESDYWGQGTLVTVSS
14 | 29.3 nM | > 30 nM | 1.42 nM | 0.031 nM |  |  |  |  | VV02-1LP-317 (Fc fusion, not shown: a dimerising Fc or GST; small tags and cut ends, Llama nanobody tested as fusion with human IgG1 Fc (N297A)) VHH: EVDLVESGGGLVQPGGSLRLSCAASGFTFSRSAMSWARQAPGKGFEWVSGIYSGGSTYYVDSVEGRFTISRDNAKNTVYLQMNSLKPEDTAVYYCATWGSQQIGVWHEDDYWGQGTQVTVSS
15 |  |  |  |  | 0.11 nM | 39100 MFI | 0.37 nM | 130000 MFI | VV02-1LP-263 huNb_2_3 (Fc fusion, not shown: a dimerising Fc or GST, detection by anti-human Fc) VHH: EVQLVESGGGLVQPGGSLRLSCAASGFTFSSSAMSWARQAPGKGFEWVSGIYSGGSTYYTESVKDRFTISRDNAKNTVYLQMNSLKPEDTAVYYCATWGTLRFGVWAEYDHWGQGTLVTVSS
16 |  |  |  |  | 0.12 nM | 40300 MFI | 0.7 nM | 149000 MFI | VV02-1LP-263 huNb_3_3 (Fc fusion, detection by anti-human Fc; not shown: Fc part, implied only by the anti-human Fc secondary antibody) VHH: QVQLVESGGGLVQPGGSLRLSCAASGFTFSSSAMSWARQAPGKGFEWVSGIYSGGSTYYTESVKDRFTISRDNAKNSVYLQMNSLKPEDTAVYYCATWGTLRFGVWAEYDHWGQGTQVTVSS
17 |  |  |  |  | 0.19 nM | 23400 MFI | 0.64 nM | 86400 MFI | VV02-1LP-263 huNb_2_2 (Fc fusion, not shown: a dimerising Fc or GST, detection by anti-human Fc) VHH: EVQLVESGGGLVQPGGSLRLSCAASGFTFSSSAMSWARQAPGKGLEWVSGIYSGGSTYYTESVKDRFTISRDNAKNTLYLQMNSLRPEDTAVYYCATWGTLRFGVWAEYDHWGQGTLVTVSS
18 |  |  |  |  | 0.17 nM | 23500 MFI | 0.69 nM | 99600 MFI | VV02-1LP-263 huNb_1_2 (Fc fusion, not shown: a dimerising Fc or GST, detection by anti-human Fc) VHH: EVQLLESGGGLVQPGGSLRLSCAASGFTFSSSAMSWARQAPGKGLEWVSGIYSGGSTYYTESVKDRFTISRDNSKNTVYLQMNSLKPEDTAVYYCATWGTLRFGVWAEYDHWGQGTLVTVSS
19 |  |  |  |  | 0.11 nM | 42100 MFI | 0.33 nM | 134000 MFI | VV02-1LP-263 huNb_1_3 (Fc fusion, not shown: a dimerising Fc or GST, detection by anti-human Fc) VHH: EVQLLESGGGLVQPGGSLRLSCAASGFTFSSSAMSWARQTPGKGFEWVSGIYSGGSTYYTESVKDRFTISRDNSKNTVYLQMNSLKPEDTAVYYCATWGTLRFGVWAEYDHWGQGTQVTVSS
20 |  |  |  |  | 0.14 nM | 38000 MFI | 0.7 nM | 128000 MFI | VV02-1LP-263 huNb_3_2 (Fc fusion, not shown: a dimerising Fc or GST, detection by anti-human Fc) VHH: QVQLVESGGGLVKPGGSLRLSCAASGFTFSSSAMSWARQAPGKGFEWVSGIYSGGSTYYTESVKDRFTISRDNAKNSLYLQMNSLRPEDTAVYYCATWGTLRFGVWAEYDHWGQGTQVTVSS
21 |  | 11.1 nM | 2.05 nM | 0.081 nM |  |  |  |  | VV02-1LP-417 (Fc fusion, Llama nanobody tested as fusion with human IgG1 Fc (N297A); not shown: Human IgG1 Fc fragment with N297A, plus the hinge or linker joining it to the nanobody) VHH: QLQLVESGGGLVQPGGSLRLSCAASGFALDYSAIGWFRQAPGKEREGVLCISSSGDVTIYADSVKGRFTISRDNAKNTVYLQMNSLKPEDTAVYYCVAPRICSTYSSDDYWGQGTQVTVSS
22 |  | > 30 nM | 2.57 nM | 0.052 nM |  |  |  |  | VV02-1LP-288 (Fc fusion, not shown: a dimerising Fc or GST; small tags and cut ends, Llama nanobody tested as fusion with human IgG1 Fc (N297A)) VHH: EVQVVESGGGLVQPGGSLRLSCAASGSSLDYSAIGWFRQAPGKEREGVLCISSSGDVTIYADSVKGRFTISRDNAKNTVYLQMNSLKPEDTAVYYCVAPRICSTYSSDDYWGQGTQVTVSS
